Reference: patent US20230279105A1 (SINGLE CELL TECHNOLOGY, published 2023)

These binders were tested against T1, Human TIM-3 Human Fc tagged protein (human, fluorescently labeled with HiLyte Fluor 555 (sites not given)) (assay: capture slide probed with labeled TIM-3-Fc;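 further: IgG from single CD138-enriched plasma cells, isolated from lymphocytes, immobilized on a derivatized glass slide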).
T1 construct: Bought construct; also called TIM-3 protein tagged with human Fc; ACROBiosystems catalog no: TM3-H5258

| binding result | Binder |
| --- | --- |
| binds | SCT-Fa003 (antibody, V domains shown, murine IgG) VH: EGKLEESGGGLVQPGGSMKLSCAASGFTFSDAWMDWVRQSPKKGLEWVAEIRNKANKHSKHYAESVKGRFTISRDDSKSSVYLQMNSLRAEDTGIYYCSYDYIFAYWGQGTLVTVSA VL: DVVMTQTPLSLPVSLGDQASISCRSSQSLVHSNGNTYLHWYLQKPGQSPKLLIYKVSNRFSGVPDRFSGSGSGTDFTLKISRVEAEDLGVYFCSQSTHVPWTFGGGTKLEIK |
| binds | SCT-Fa046 (antibody, V domains shown, murine IgG) VH: EVQLQQSGPELVKPGASVKISCKASGYTFTDYNMHWVKQSHGKSLAWIGYIYPYNGGTGYNQKFKNKATLTVDDSSSTAYMDLRSLTSDDSAVYYCAREDYGSREWFAYWGQGTLVTVSA VL: DVVMTQTPLSLPVSLGDQASISCRSSQSLVHSNGNTYLYWYLQKPGQSPKLLIYKVSNRFSGVPDRFSGSGSGTDFTLKISRVEAEDLGVYFCSQSTHVPLTFGAGTKLELK |
| binds | SCT-Fa020 (antibody, V domains shown, murine IgG) VH: EVQLHQSGPELVKPGASVKMSCKASGYTFTDYNMHWVKQSHGKSLEWIGYINPNNGGIIYNQNFKGKATLTVNKSSTTAYMELRSLTSEDSAVYYCVGSLDYWGQGTTLTVSS VL: DIQMTQTTSSLSASLGDRVTISCRASQDINNYLNWYQQKPDETVKLLIYYTSRLHSGVPSRFSGSGSGTDYSLTISNLDQEDFATYFCQQGYMLPLTFDAGTKLELK |
| binds | SCT-Fa022 (antibody, V domains shown, murine IgG) VH: EVQLQQPGAELVKPGASVKLSCKASGYTFTSYWIHWVKQRPGRGLEWIGRIDPNSGGTKYNEKFKSKATLTVDKPSSTAYMQLSSLTSEDSAVYYCTKDGNTPYYAMDYWGQGTSVTVSS VL: SIVMTQTPKFLLVSAGDRVTITCKASQSVSNAVAWYQQKPGQSPKLLIYYASNRYTGVPDRFTGSGYGTDFTFTISTVQAEDLAVYFCQQDYSSPLTFGAGTKLELK |
| binds | SCT-Fa005 (antibody, V domains shown, murine IgG) VH: EVHLQQSVAEVVRPGASVNLSCTVSGFNNKNTYMYWVKQRPEQGLEWIGIIDPANGNVKYAPKFQGKATITADTSSNTAYLQLSSLTSEDTAIYYCARGSSRLYYALDYWGQGTSVTVSS VL: DIVLTQSPASLAVSLGQRATISCRASESVDSYGNSFMHWYQQKPGQPPKLLIYRASNLESGIPARFSGSGSRTDFTLTIYPVEADDVATYYCQQSNEDPYTFGGGTKLEIK |
| binds | SCT-Fa053 (antibody, V domains shown, murine IgG) VH: EVQLQQSGPVLVKPGASVKMSCKASGYSFTGYHMNWVKQSHGKSLEWIGIINPYNSATTYNQKFKGKATLTVDKSSSTAYMELNSLTSEDSVVYYCVRGAYGNPLDYWGQGTTLTVSS VL: DIKMTQSPSSMYASLGERVTITCKASQDINSYLSWFQQKPGKSPKTLIYRANRLVDGVPSRFSGSGSGQDYSLTISSLEYEDMGIYYCLQYDEYPYTFGGGTKLEIK |
| binds | SCT-Fa052 (antibody, V domains shown, murine IgG) VH: EVQLQQSGPVLVKPGASVKMSCKASGYSFTGYHMNWVKQSHGKSLEWIGIINPYNSASTYNQKFKGKATLTVDKSSSTAYMELNSLTSEDSVVYYCVRGAYGNPLDYWGQGTTLTVSS VL: DIKMTQSPSSMYASLGERVTITCKASQDINSYLSWFQQKPGKSPKTLIYRTNRLVDGVPSRFSGSGSGQDYSLTISSLEYEDMGIYYCLQYDEYPYTFGGGTKLEIK |
| binds | SCT-Fa023 (antibody, V domains shown, murine IgG) VH: EVQLQQSGAELVKPGASVKLSCTASDFNIKDYYLHWVKQRTEQGLEWIGRIDPDDGETKYGPKFQGKATITADTSSNTAFLQLSSLTSEDTAVYFCSRSNPYYFDYWGQGTTLTVSS VL: DIQMNQSPSSLSASLGDTITITCHVSQNINVWLSWYQQKPGNIPKLLIYKASNLHTGVTSRFSGSGAGTGFTLTISSLQPEDIATYYCQQGQNYPYTFGGGTKLEIK |
| binds | SCT-Fa035 (antibody, V domains shown, murine IgG) VH: EVQLQQSGAELVKPGASVKLSCTDFGFNIKDYYMHWVKQRTEQGLEWIGRIDPEDGETKYVPKFQGKATITADTSSNTAFLHLTSLTSEDTAVYYCARSNPYYFDYWGQGTTLTVSS VL: not shown |
| binds | SCT-Fa034 (antibody, V domains shown, murine IgG) VH: EVQLQQSGAELVKPGASVKLSCTDFGFNIKDYYMHWVKQRTEQGLEWIGRIDPEDGETKYVPKFQGKATITADTSSNTAFLHLTSLTSEDTAVYYCARSNPYYFDYWGQGTTLTVSS VL: DIQMNQSPSSLSASLGDTVTITCHASQTINVWLSWYQQKPGNIPKLLIYKASNLHTGVPSRFSGSGSGTGFTLTISSLQPEDIATYYCQQGQNYPYTFGGGTKLEIK |
| binds | SCT-Fa027 (antibody, V domains shown, murine IgG) VH: EVQLQQSGAELVKPGASVKLSCTASGFNIKDYYIHWVKQRTDQGLEWIGRIDPDNGETKYAPKFQGKATITADTSSNTAYLQLGSLTSEDTAVYYCARSSPYYFDYWGQGTTLTVSS VL: DIQMNQSPSSLSASLGDTITITCHASQNINVWLSWYQQKPGNIPKLLIYKASNLHTGVPSRFSGSGSVTGFTLTISSLQPEDIATYYCQQGQNFPYTFGGGTKLEII |
| binds | SCT-Fa043 (antibody, V domains shown, murine IgG) VH: EVQLQQSGAELVRPGASVKLSCTASGFNIKDYYMHWVKQRTEQGLEWIGRIDPDNDEIKYAPKFQGKATLTADTSSNTASLQLSGLTSEDTAVYYCARSSPYYFDYWGQGTTLTVSS VL: DIQMNQSPSSLSASLGDTITITCHASQNINVWLSWYQQKPGNIPKLLIYKASNLHTGVPSRFSGSGSVTGFTLTISSLQPEDIATYYCQQGQNIPYTFGGGTQLEIK |
| binds | SCT-Fa031 (antibody, V domains shown, murine IgG) VH: EVQLQQSGAELVKPGASVKLSCTASGFNIKDYYMHWVKQRTEQGLEWIGRIDPEDGETKYVPKFQGKATITADTSSNTAFLHLTSLTSEDTAVYYCARSNPYYFDYWGQGTTLTVSS VL: DIQMNQSPSSLSASLGDTVTITCHASQTINVWLSWYQQKPGNIPKLLIYKASNLHTGVPSRFSGSGSGTGFTLTISSLQPEDIATYYCQQGQNYPYTFGGGTKLEIK |
| binds | SCT-Fa028 (antibody, V domains shown, murine IgG) VH: EVQLQQSGAELVKPGASVKLSCTASGFNIKDYYMHWVKQRTDHGLEWIGRIDPDNGETKYAPKFQGKATITADTSSNTAYLQLGSLTSEDTAVYYCARSSPYYFDYWGQGTTLTVSS VL: DIQMNQSPSSLSASLGDTITITCHASQNINVWLSWYQQKPGNIPKLLIYKASNLHTGVPSRFSGSGSVTGFTLTISSLQPEDIATYYCQQGQNFPYTFGGGTKLEIK |
| binds | SCT-Fa026 (antibody, V domains shown, murine IgG) VH: EVQLQQSGAELVKPGASVKLSCTASGFNIKDFYMHWVHQRTEKGLEWIGRIDPEDGKTKYAPKFQGKATITADTSSNTAYLQLSSLTSEDTAVYYCARSNPYFFDYWGQGTTLTVSS VL: DIQMNQSPSSLSASLGDTITITCHASQTINVWLSWYQQKPGNIPKLLIYKASNLHTGVPSRFSGSGSGTGFTLNISSLQPEDIATYYCHQGQSYPYTFGGGTKLEIK |
| binds | SCT-Fa030 (antibody, V domains shown, murine IgG) VH: EVQLQQSGAELVKPGASVKLSCTASGFNIKDYYMHWVKQRTEQGLEWIGRIDPEDGETKYAPKFQGKATITADTSSNTASLQLSSLTSEDTAVYYCARSNPYFFDYWGQGTPLTVSS VL: DIQMNQSPSSLSASLGDTITITCHASQTINVWLSWYQQKPGNIPKLLIYKASKMHTGVPSRFSGSGSGTGFTLNISSLQPEDIATYYCHQGQSYPYTFGGGTKLEIK |
| binds | SCT-Fa033 (antibody, V domains shown, murine IgG) VH: EVQLQQSGAELVKPGASVKLSCTASGFNIKDYYMHWVRQRTEQGLEWIGRIDPEDGETKYAPKFQGKATITAATSSNTPYLQLSGLTSEDTAVYYCGRSNPYYFDYWGQGTTLTVSS VL: DIQMNQSPSSLSASLGDRITINCHASQNINVWLSWYQQKPGNIPKLLIYKASNLHTGVPSRFSGSGSVTVFTLTISSLQPEDIATYYCQQGQNYPYTFGGGTKLEIK |
| binds | SCT-Fa038 (antibody, V domains shown, murine IgG) VH: EVQLQQSGAELVKPGASVKLSCTVSGFNIKDYYMHWVKQRTEQGLEWIGRIDPENDKIKYAPKFQGKATITADTSSNTVYLQLSSLTSEDTAVYYCARSNPYFFDYWGQGTTLTVSS VL: DIQMNQSPSSLSASLGDTITITCHASQTINVWLSWYQQKPGNIPKLLIYKASNLHTGVPSRFSGSGSGTGFTLNISSLQPEDIATYYCHQGQSYPYTFGGGTKLEIK |
| binds | SCT-Fa047 (antibody, V domains shown, murine IgG) VH: EVQLQQSGPELVKPGASVKISCKASGYTFTDYYMNWVKQSHGKSLEWIGDINLNNGGTVYNQKFRGKATLTVDKSSSTAYMELRSLTSEDSAVYYCEGLGGYWGQGTTLTVSS VL: DVLMTQTPLSLPVSLGDQVSISCRSSQSIVHSNGNTYLEWYLQKPGQSPNLLIYKVANRLSGVPDRFSGSGSGTDFTLKISRVEAEDLGVYYCFQGSHVPFTFGSGTKLEIK |
| binds | SCT-Fa048 (antibody, V domains shown, murine IgG) VH: EVQLQQSGPELVKPGASVKISCKASGYTLTDYYMNWVKQSHGESLEWIGDINPNNGDINYNQKFKGKATLTADKSSSTAYMELRSLTSEDSAVYYCEGLGGYWGQGTTLTVSS VL: DVLMTQTPLSLPVSLGDQASISCRSSQTIVHSNGNTYLEWYLQTPGQSPKLLIYKVSNRISGVPDRFSGSGSGTDFTLKISRVEAEDLGVYYCFQGSHVPFTFGSGTKLEIK |
| binds | SCT-Fa049 (antibody, V domains shown, murine IgG) VH: EVQLQQSGPELVKPGSSVKISCKASGYTLTDYYMNWVKQSHGESLEWIGDINPNNGDINYNQKFKGKATLTADKSSSTAYMELRSLTSEDSAVYYCEGLGGYWGQGTTLTVSS VL: DVLMTQTPLSLPVSLGDQASISCRSSQTIVHSNGNTYLEWYLQTPGQSPKLLIYKVSNRISGVPDRFSGSGSGTDFTLKISRVEAEDLGVYYCFQGSHVPFTFGSGTKLEIK |
| binds | SCT-Fa050 (antibody, V domains shown, murine IgG) VH: EVQLQQSGPMLVKPGASVKMSCKASGNTFTAFYMSWVKQSHGKSLEWIGVVNPYNGGAGYNQKFKGKATLTVDKSSSTAYMELNGLTSEDSAVYYCLLWEFAHWGQGTLVTVSA VL: not shown |
